Data on one protein can be found in ChEMBL document CHEMBL1128147, “Mechanistic support for the stepwise process for inactivation of class A -lactamases by clavulanate” (Bioorg Med Chem Lett, 1995).

Substrate in the data set: O=C(O)[C@H]1C(CCO)O[C@@H]2CC(=O)N21

Description: Km for inactivation of TEM-1 beta-lactamase

B1: Beta-lactamase (Enterobacter cloacae), P05364 (protein)
chain: MMRKSLCCALLLGISCSALATPVSEKQLAEVVANTITPLMKAQSVPGMAVAVIYQGKPHYYTFGKADIAANKPVTPQTLFELGSISKTFTGVLGGDAIARGEISLDDAVTRYWPQLTGKQWQGIRMLDLATYTAGGLPLQVPDEVTDNASLLRFYQNWQPQWKPGTTRLYANASIGLFGALAVKPSGMPYEQAMTTRVLKPLKLDHTWINVPKAEEAHYAWGYRDGKAVRVSPGMLDAQAYGVKTNVQDMANWVMANMAPENVADASLKQGIALAQSRYWRIGSMYQGLGWEMLNWPVEANTVVEGSDSKVALAPLPVAEVNPPAPPVKASWVHKTGSTGGFGSYVAFIPEKQIGIVMLANTSYPNPARVEAAYHILEALQ
Take B1: the Michaelis-Menten constant (Km) was 2.2 µM.
